Test results as given in patent publication US20050282743A1, “Molecular interactions in cells” (Arbor Vita Corporation, priority 2001, published 2005).
Each block holds one binder with its values, some of them ahead of it.

Experiments:
Assay in all cases: G' assay
[1] = target: T1, GST-APXL-1 PDZ domain 1 (Homo sapiens (Human)), Q13796
T1 chain: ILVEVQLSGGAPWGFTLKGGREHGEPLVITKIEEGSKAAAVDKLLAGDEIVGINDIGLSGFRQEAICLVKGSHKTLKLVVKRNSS

[2] = target: T2, GST-FLJ00011 PDZ domain 1 (Homo sapiens (Human)), Q9H5P4
T2 chain: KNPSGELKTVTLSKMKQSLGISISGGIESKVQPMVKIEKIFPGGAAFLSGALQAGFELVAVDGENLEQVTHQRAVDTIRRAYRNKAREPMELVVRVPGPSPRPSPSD

[3] = target: T3, GST-KIAA0807(S) PDZ domain 1 (Homo sapiens (Human)), Q6P0Q8
T3 chain: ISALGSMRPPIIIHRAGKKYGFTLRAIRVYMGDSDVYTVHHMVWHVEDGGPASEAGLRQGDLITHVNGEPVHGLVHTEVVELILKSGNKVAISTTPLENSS

[4] = target: GST-KIAA807 [GST: P08515]
Sequence of GST-KIAA807 [GST: P08515] (P08515 whole entry, the tested form may be a part): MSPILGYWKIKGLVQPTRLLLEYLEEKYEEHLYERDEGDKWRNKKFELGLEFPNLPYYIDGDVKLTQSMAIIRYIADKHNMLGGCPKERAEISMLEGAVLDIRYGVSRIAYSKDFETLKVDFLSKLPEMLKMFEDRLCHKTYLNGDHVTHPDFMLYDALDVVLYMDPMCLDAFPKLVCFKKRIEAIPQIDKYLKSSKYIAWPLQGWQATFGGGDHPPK

[5] = target: GST-BAI-1 Associated Protein PDZ domain 3 (Homo sapiens (Human)), Q96QZ7
Sequence of GST-BAI-1 Associated Protein PDZ domain 3 (Homo sapiens (Human)), Q96QZ7 (Q96QZ7 other isoform, or with tags, fused parts or gaps): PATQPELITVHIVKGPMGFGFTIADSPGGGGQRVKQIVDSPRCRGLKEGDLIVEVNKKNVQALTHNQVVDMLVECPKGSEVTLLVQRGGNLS

[6] = target: GST-KIAA1634 PDZ domain 1 (Homo sapiens (Human)), Q5TCQ9
Sequence of GST-KIAA1634 PDZ domain 1 (Homo sapiens (Human)), Q5TCQ9 (Q5TCQ9 401-502): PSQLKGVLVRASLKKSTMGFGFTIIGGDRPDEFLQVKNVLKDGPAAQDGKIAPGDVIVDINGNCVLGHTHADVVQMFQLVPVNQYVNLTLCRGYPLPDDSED

[7] = target: T4, GST-MINT1 PDZ domains 1, 2, Q02410
T4 chain: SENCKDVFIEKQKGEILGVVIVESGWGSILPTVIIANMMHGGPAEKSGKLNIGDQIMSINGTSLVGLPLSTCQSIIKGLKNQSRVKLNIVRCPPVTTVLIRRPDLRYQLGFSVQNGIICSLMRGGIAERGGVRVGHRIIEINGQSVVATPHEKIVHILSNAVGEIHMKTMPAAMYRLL

[8] = target: T5, GST-MUPP1 PDZ domain 3 (Homo sapiens (Human)), O75970
T5 chain: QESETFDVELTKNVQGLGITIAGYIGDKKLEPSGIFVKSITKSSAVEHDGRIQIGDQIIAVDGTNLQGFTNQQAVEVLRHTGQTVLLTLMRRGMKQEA

[9] = target: T6, GST-MUPP1 PDZ domain 7 (Homo sapiens (Human)), O75970
T6 chain: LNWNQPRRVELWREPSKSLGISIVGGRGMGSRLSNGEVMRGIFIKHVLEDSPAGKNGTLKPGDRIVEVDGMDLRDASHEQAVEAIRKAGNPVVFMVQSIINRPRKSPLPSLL

[10] = target: T7, GST-MUPP1 PDZ domain 9 (Homo sapiens (Human)), O75970
T7 chain: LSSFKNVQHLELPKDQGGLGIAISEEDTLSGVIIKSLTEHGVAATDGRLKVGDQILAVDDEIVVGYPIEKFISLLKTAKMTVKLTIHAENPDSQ

[11] = target: T8, GST-PTPL1 PDZ domain 4 (Homo sapiens (Human)), Q12923
T8 chain: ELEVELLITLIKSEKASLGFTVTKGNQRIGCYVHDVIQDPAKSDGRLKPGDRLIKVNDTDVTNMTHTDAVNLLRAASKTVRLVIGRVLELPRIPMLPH

[12] = target: T9, GST-AIPC PDZ domain 1 (Homo sapiens (Human)), O15018
T9 chain: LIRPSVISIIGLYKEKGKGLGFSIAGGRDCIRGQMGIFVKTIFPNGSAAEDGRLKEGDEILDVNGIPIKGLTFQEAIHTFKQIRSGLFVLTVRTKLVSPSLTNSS

[13] = target: T10, GST-KIAA0380 PDZ domain 1 (Homo sapiens (Human)), O15085
T10 chain: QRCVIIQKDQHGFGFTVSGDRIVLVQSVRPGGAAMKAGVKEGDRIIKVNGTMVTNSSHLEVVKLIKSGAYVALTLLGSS

[14] = target: T11, GST-KIAA0973 PDZ domain 1 (Homo sapiens (Human)), Q9Y2H9
T11 chain: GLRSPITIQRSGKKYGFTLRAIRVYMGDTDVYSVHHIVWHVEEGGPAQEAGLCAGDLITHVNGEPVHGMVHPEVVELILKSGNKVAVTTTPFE

[15] = target: GST-BAI-1 Associated Protein PDZ domain 2 (Mus musculus (Mouse)), Q6RHR9
Sequence of GST-BAI-1 Associated Protein PDZ domain 2 (Mus musculus (Mouse)), Q6RHR9 (Q6RHR9 455-558): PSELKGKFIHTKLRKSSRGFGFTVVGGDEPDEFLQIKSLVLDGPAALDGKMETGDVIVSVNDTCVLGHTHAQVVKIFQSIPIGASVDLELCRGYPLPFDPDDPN

[16] = target: GST-BAI-1 Associated Protein PDZ domain 5 (Homo sapiens (Human)), Q96QZ7
Sequence of GST-BAI-1 Associated Protein PDZ domain 5 (Homo sapiens (Human)), Q96QZ7 (Q96QZ7 988-1099): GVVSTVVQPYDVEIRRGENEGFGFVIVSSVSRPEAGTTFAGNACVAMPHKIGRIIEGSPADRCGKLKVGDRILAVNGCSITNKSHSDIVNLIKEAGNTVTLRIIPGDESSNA

[17] = target: GST-DLG1 PDZ domains 1, 2 (Homo sapiens), Q12959
[18] = target: T12, GST-INADL PDZ domain 8 (Homo sapiens (Human)), Q8NI35
T12 chain: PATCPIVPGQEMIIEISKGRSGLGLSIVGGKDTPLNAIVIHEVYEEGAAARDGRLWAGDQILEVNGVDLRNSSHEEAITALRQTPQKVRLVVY

[19] = target: GST-KIAA0147 PDZ domain 1 (Homo sapiens (Human)), Q14160
Sequence of GST-KIAA0147 PDZ domain 1 (Homo sapiens (Human)), Q14160 (Q14160 other isoform, or with tags, fused parts or gaps): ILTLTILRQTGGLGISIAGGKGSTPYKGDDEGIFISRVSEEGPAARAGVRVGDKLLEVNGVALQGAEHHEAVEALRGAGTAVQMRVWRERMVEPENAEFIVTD

[20] = target: T13, GST-KIAA0382 PDZ domain 1 (Canis lupus familiaris (Dog) (Canis familiaris)), A0A8I3
T13 chain: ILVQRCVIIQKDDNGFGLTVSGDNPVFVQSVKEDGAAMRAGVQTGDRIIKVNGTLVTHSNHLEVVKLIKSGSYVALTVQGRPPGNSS

[21] = target: T14, GST-KIAA1634 PDZ domain 2 (Homo sapiens (Human)), Q5TCQ9
T14 chain: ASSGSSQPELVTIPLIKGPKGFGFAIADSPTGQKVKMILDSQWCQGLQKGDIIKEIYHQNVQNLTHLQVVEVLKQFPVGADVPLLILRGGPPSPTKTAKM

[22] = target: T15, GST-MUPP1 PDZ domain 10 (Homo sapiens (Human)), O75970
T15 chain: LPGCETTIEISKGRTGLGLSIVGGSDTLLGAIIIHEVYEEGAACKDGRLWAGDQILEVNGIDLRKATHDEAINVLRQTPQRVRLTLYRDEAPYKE

[23] = target: T16, GST-NeDLG PDZ domains 1, 2, Q92796
T16 chain: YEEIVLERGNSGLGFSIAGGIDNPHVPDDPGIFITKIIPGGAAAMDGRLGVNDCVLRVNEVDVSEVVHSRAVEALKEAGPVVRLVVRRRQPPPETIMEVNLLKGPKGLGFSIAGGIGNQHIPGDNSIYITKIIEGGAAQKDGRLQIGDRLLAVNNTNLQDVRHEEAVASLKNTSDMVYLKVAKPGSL

[24] = target: T17, GST-Outer Membrane PDZ domain 1 (Homo sapiens (Human)), P57105
T17 chain: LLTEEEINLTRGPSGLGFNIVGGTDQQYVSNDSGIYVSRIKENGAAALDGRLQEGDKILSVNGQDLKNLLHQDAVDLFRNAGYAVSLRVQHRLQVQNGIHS

[25] = target: GST-PSD95 PDZ domains 1, 2, 3 (Homo sapiens), P78352
Sequence of GST-PSD95 PDZ domains 1, 2, 3 (Homo sapiens), P78352 (P78352 62-395): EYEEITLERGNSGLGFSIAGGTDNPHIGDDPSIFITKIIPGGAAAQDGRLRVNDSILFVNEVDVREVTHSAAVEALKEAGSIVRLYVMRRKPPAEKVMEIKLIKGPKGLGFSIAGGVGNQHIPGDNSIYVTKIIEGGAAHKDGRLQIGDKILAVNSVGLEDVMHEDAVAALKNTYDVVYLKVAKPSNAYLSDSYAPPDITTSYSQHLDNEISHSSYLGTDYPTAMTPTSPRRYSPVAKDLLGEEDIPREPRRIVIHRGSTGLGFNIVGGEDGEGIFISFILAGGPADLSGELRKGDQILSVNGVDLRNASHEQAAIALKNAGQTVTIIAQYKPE

[26] = target: T18, GST-TIP1 PDZ domain 1 (Table 9 insert) (Homo sapiens (Human)), O14907
T18 chain: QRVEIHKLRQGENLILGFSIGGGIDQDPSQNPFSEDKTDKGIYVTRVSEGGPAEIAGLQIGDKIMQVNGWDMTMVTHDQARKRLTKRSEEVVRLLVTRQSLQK

[27] = target: T19, GST-FLJ 10324 PDZ domain 1 [GST: P08515]
T19 chain: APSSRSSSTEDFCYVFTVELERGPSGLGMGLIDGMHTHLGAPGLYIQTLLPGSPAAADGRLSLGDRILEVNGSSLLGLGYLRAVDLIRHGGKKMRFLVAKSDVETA

[28] = target: T20, GST-PTPL1 PDZ domain 2 (Homo sapiens (Human)), Q12923
T20 chain: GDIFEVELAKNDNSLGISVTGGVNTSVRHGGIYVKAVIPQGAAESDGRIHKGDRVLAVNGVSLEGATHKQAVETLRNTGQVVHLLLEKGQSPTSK

[29] = target: T21, GST-MINT1 PDZ domain 2 (Mus musculus (Mouse)), B2RUJ5
T21 chain: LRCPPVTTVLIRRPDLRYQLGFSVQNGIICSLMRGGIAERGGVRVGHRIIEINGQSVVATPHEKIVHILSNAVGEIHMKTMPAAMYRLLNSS

[30] = target: GST-BAI-1 Associated Protein PDZ domain 6 (Homo sapiens (Human)), Q96QZ7
Sequence of GST-BAI-1 Associated Protein PDZ domain 6 (Homo sapiens (Human)), Q96QZ7 (Q96QZ7 1143-1233): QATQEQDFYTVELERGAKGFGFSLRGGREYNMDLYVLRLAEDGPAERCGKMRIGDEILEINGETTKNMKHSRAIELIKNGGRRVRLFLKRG

[31] = target: GST-BAI-1 Associated Protein PDZ domain 4 (Homo sapiens (Human)), Q96QZ7
Sequence of GST-BAI-1 Associated Protein PDZ domain 4 (Homo sapiens (Human)), Q96QZ7 (Q96QZ7 other isoform, or with tags, fused parts or gaps): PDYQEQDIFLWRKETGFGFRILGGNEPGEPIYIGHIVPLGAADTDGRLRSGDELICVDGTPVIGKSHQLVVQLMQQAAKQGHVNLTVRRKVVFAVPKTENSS

[32] = target: T22, GST-PDZK1 PDZ domains 2, 3, 4, Q5T2W1
T22 chain: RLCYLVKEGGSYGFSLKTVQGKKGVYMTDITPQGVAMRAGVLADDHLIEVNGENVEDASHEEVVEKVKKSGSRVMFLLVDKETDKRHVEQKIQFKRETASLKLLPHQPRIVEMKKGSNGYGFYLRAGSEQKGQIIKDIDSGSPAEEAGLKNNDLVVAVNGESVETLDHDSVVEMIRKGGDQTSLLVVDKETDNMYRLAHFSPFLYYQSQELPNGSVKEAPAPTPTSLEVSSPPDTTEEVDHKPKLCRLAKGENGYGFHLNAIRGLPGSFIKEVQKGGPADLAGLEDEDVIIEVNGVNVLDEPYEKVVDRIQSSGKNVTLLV
Further: key of the grades not given here.

Classification [1]: 1 A450 class | Classification [2]: 1 A450 class | Classification [3]: 1 A450 class | Classification [4]: 1 A450 class
Binder: GTSDMKDLVGNIEQNEHSVI (modifications not checked) [Mannose Receptor]

Classification [5]: 1 A450 class | Classification [6]: 1 A450 class | Classification [4]: 1 A450 class | Classification [7]: 2 A450 class
Binder: PGQPPKVKSEFNSYSLTGYV (modifications not checked) [claudin 2]

Classification [3]: 1 A450 class | Classification [4]: 1 A450 class | Classification [8]: 1 A450 class | Classification [9]: 1 A450 class | Classification [10]: 1 A450 class | Classification [11]: 2 A450 class
Binder: PVYIVQEMPPQSPANIYYKV (modifications not checked) [ephrin B1]

Classification [12]: 2 A450 class | Classification [1]: 2 A450 class | Classification [13]: 3 A450 class | Classification [3]: 5 A450 class | Classification [14]: 2 A450 class | Classification [4]: 5 A450 class | Classification [7]: 4 A450 class
Binder: SSKSKSSEESQTFFGLYKL (modifications not checked) [Fas Ligand]

Classification [3]: 1 A450 class | Classification [8]: 1 A450 class | Classification [9]: 1 A450 class | Classification [10]: 1 A450 class
Binder: TALRIKKTLAKMVESQDVKI (modifications not checked) [bone morphogenetic protein receptor]

Classification [15]: 1 A450 class | Classification [16]: 1 A450 class | Classification [17]: 5 A450 class | Classification [2]: 1 A450 class | Classification [18]: 2 A450 class | Classification [19]: 1 A450 class | Classification [20]: 1 A450 class | Classification [3]: 1 A450 class | Classification [6]: 1 A450 class | Classification [21]: 1 A450 class | Classification [4]: 1 A450 class | Classification [22]: 1 A450 class | Classification [23]: 4 A450 class | Classification [24]: 2 A450 class | Classification [25]: 5 A450 class | Classification [26]: 3 A450 class
Binder: ESSGTQSPKRHSGSYLVTSV (modifications not checked) [APC-adenomatous polyposis coli protein]

Classification [5]: 1 A450 class | Classification [17]: 1 A450 class | Classification [27]: 1 A450 class | Classification [21]: 1 A450 class | Classification [23]: 1 A450 class | Classification [25]: 1 A450 class | Classification [28]: 2 A450 class
Binder: SLKPGTVLPPPPYRHRNTVV (modifications not checked) [ErbB-4 receptor]

Classification [16]: 1 A450 class | Classification [3]: 5 A450 class | Classification [14]: 2 A450 class | Classification [4]: 4 A450 class | Classification [29]: 1 A450 class | Classification [7]: 1 A450 class
Binder: KKGTYLTDETHREVKFTSL (modifications not checked) [CD46]

Classification [15]: 1 A450 class | Classification [30]: 1 A450 class | Classification [17]: 3 A450 class | Classification [18]: 1 A450 class | Classification [13]: 1 A450 class | Classification [6]: 1 A450 class | Classification [4]: 2 A450 class | Classification [7]: 1 A450 class | Classification [23]: 2 A450 class | Classification [25]: 3 A450 class | Classification [26]: 5 A450 class
Binder: RNIEEVYVGGKQVVPFSSSV (modifications not checked) [Nedasin (s-form)]

Classification [31]: 1 A450 class | Classification [16]: 1 A450 class | Classification [17]: 1 A450 class | Classification [4]: 1 A450 class | Classification [7]: 1 A450 class | Classification [32]: 1 A450 class
Binder: EALQPEPGRKRIPLTRTTTF (modifications not checked) [somatostatin receptor 4]
